± gives the uncertainty stated by the source.
experiment: protein stability index of a GFP-peptide fusion (yeast GPS) (PSI 1-4); higher = more stable; sorted into four equal gates, so the index is relative within each strain; conditions: doa10∆
In short: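 The protein stability index of a peptide was calculated by multiplying its read frequency in each gate by that gate's number and adding the products. The peptides were tiled 17-residue stretches of yeast proteins, fused downstream of GFP on a Cherry-expressing plasmid and carried in yeast as a pooled library. Mid-log cultures in leucine-free medium were sorted into four equal gates by GFP/Cherry ratio, and each gate's plasmids were PCR-amplified and Illumina-sequenced.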

DLINILEKKGFSEVYEY [LIN1] and DLKAQFQELDSKKQRNN [RPN9] are within error of each other in protein stability index: 3.44 ± 0.17 for the first, 3.21 ± 0.088 for the second.

Compared with DLKEGLQDLSRYSRQFI [GRR1], DLKKLNLNVYIQVFEKP [CDC53] is lower in protein stability index: 3.07 ± 0.062 for the first, 2.23 ± 0.11 for the second.

DLKLPPMDAYLKLNHII [SNU114] and DLKPANIMVTIDGCVKI [SSN3] are within error of each other in protein stability index: 3.09 ± 0.28 for the first, 2.58 ± 0.29 for the second.

Going from DLKSKADKLADMANEII [RRP6] to DLKSKGLIPADATFAGH [FAS1], the protein stability index falls from 3.38 ± 0.15 to 3.04 ± 0.092.

First: DLMDDMSDISDLDDLGF [RPN3]
Second: DLSMVPKMKDEEYDDDD [SNF2]
The protein stability index of the first is lower: 1.82 ± 0.098 for the first, 2.9 ± 0.13 for the second.

DLSTLVHSSSPSTSSNM [GAL11] and DLVHIKDSLDNTFVTRL [RPS4A] are within error of each other in protein stability index: 2.77 ± 0.066 for the first, 2.79 ± 0.12 for the second.

Going from DLVLQILEDTATMSVFL [RRI2] to DNETPSKKTSPKATSSA [YOR098C/NUP1], the protein stability index falls from 2.86 ± 0.063 to 2.1 ± 0.05.

First: DNEVQRTMLELITQLDG [RPT1]
Second: DNKIDIYQIHIPYAAKL [RPB2]
The protein stability index of the first is lower: 2.55 ± 0.12 for the first, 3.16 ± 0.082 for the second.

Going from DNKINEIKLLEISCKQW [CSI1] to DNLFGETESSVSNNEAN [SWI3], the protein stability index rises from 2.54 ± 0.18 to 3.55 ± 0.16.

Going from DNTVRTSANGIVQFTYG [RPO31] to DNVDFILSNVDLAMANS [RPB3], the protein stability index rises from 2.67 ± 0.1 to 3.07 ± 0.057.

DPDIPMTIDLEPIEESS [IRR1] and DPDKLKPNDLVGVNKDS [RPT5] are within error of each other in protein stability index: 3.06 ± 0.086 for the first, 3.18 ± 0.11 for the second.

Compared with DPIWQHQSLGPDGLGEV [RET1], DPLVSLMMVEKVPDSTY [RPT6] is lower in protein stability index: 2.96 ± 0.11 for the first, 2.59 ± 0.087 for the second.

Going from DPQPFLKHVLQLIFRQQ [SNU114] to DQIEKLREVVELPLLSP [RPT1], the protein stability index rises from 1.38 ± 0.042 to 2.76 ± 0.075.

Compared with DQLAVSPEQIDASPDSL [YCS4], DQLEDLREHFKNTEEGK [QCR6] is higher in protein stability index: 1.62 ± 0.071 for the first, 2.75 ± 0.27 for the second.

First: DQLSTISMILRNISFSD [SWI1]
Second: DQWYCIDKLEDLSRIMD [ITC1]
The protein stability index of the first is lower: 1.85 ± 0.052 for the first, 2.65 ± 0.26 for the second.

DRDALSGWGAVVYIIKK [PUP3] and DRINYTETALMNLKKEL [SRB5] are within error of each other in protein stability index: 3.12 ± 0.081 for the first, 3.14 ± 0.14 for the second.

First: DRMAKYLHIRDKILQLN [PGD1]
Second: DRSASRAVFLFRCKETH [RPC82]
The protein stability index of the first is higher: 2.32 ± 0.12 for the first, 1.77 ± 0.084 for the second.

DSEKRNKYAAMLTSENA [RRP45] and DSGRGAPLAKVVFRDPY [RPL2A] are within error of each other in protein stability index: 2.97 ± 0.068 for the first, 3.06 ± 0.12 for the second.

Going from DSIIDNIVKLCFVHRYK [IRR1] to DSRKNREQSSNDSETHT [BRN1], the protein stability index rises from 2.57 ± 0.11 to 3.68 ± 0.17.

Compared with DSSSNTYRSRAQQVPPY [SIN4], DSTAVALEEGLNEEAVI [YJL039C/NUP192] is higher in protein stability index: 2.89 ± 0.097 for the first, 3.08 ± 0.084 for the second.

Going from DSTSHNNGSSDKSLDSS [MED1] to DSVTTETGKLLSGLAQR [BRN1], the protein stability index falls from 3.04 ± 0.062 to 2.5 ± 0.12.

DSYLDADKELSFEINVK [BRR2] and DTADEAKTLIPSLNNKI [RPB4] are within error of each other in protein stability index: 2.83 ± 0.051 for the first, 2.95 ± 0.075 for the second.

First: DTAPKPNIVEIDLDNDE [DLS1]
Second: DTAVKTAETGYIQRRLV [RPO21]
The protein stability index of the first is higher: 3.27 ± 0.082 for the first, 1.75 ± 0.053 for the second.

DTFGEGIIITDQSNVQY [BRR2] and DTFYMNVESVGSIPVDQ [RPB3] are within error of each other in protein stability index: 3.11 ± 0.17 for the first, 2.9 ± 0.075 for the second.

Compared with DTICQSIQEQIQEFQGN [SNF5], DTKNLYVIKALQSLTSK [RPS10A] is lower in protein stability index: 3.27 ± 0.073 for the first, 1.75 ± 0.077 for the second.

Going from DTKNSKSESPSEVLVDT [ISW2] to DTLKDISTSFCFICLLH [BRN1], the protein stability index falls from 3.11 ± 0.082 to 2.01 ± 0.081.

Compared with DTRSTQGPIVADKNCAK [PUP1], DTTVPKRLGPKRANNIR [RPS6A] is higher in protein stability index: 3.13 ± 0.11 for the first, 3.46 ± 0.11 for the second.

DTVIIFDTDWNPHQDLQ [SNF2] and DVDPIELVVFLPALCKK [RPL8A] are within error of each other in protein stability index: 2.93 ± 0.064 for the first, 2.78 ± 0.092 for the second.

DVIATEPQGAVTHMDQI [SMD3] and DVLINELLDQVTLGREG [CDC53] are within error of each other in protein stability index: 3.03 ± 0.073 for the first, 3.06 ± 0.078 for the second.

DVQKSSDSSSEDEVKVE [YLR335W/NUP2] and DVQLERVADEDANLNDL [IRR1] are within error of each other in protein stability index: 2.7 ± 0.098 for the first, 2.89 ± 0.17 for the second.

Going from DVSPLRRVNQAIALLTI [RPS5] to DVVTREYTINLHKRLHG [RPL31A], the protein stability index rises from 2.07 ± 0.065 to 2.62 ± 0.12.

Going from DWEKYKAPLEDDDKKPD [RPT1] to DWQMMTSPVTGATEKRK [CSL4], the protein stability index falls from 3.16 ± 0.12 to 2.44 ± 0.07.

First: DWVRFLALALGILYMGQ [RPN1]
Second: DYAQLDHLVSSIPMGGQ [ARP9]
The protein stability index of the first is lower: 1.36 ± 0.096 for the first, 2.1 ± 0.065 for the second.

Going from DYIKDEQRHLKRELKRA [RPT3] to DYLFHLLISLNILFSLW [YLR018C/POM34], the protein stability index falls from 2.25 ± 0.058 to 1.61 ± 0.041.

DYNFKYGIPLEFYNEMH [PRP8] and DYYQSIYAKYGAKGSTL [FAS2] are within error of each other in protein stability index: 2.98 ± 0.08 for the first, 2.85 ± 0.094 for the second.

Going from EAAAVRDLSEASVYPEY [RPS26A] to EAASITRKSLNNAVRFS [ECM29], the protein stability index rises from 2.25 ± 0.076 to 2.59 ± 0.081.

Going from EAKDAIIELENINAKME [YIL149C/MLP2] to EALAFTSLVANENDKIY [YDL116W/NUP84], the protein stability index falls from 3.06 ± 0.091 to 1.85 ± 0.06.

EALLRSLLDAEEERRKK [SNF2] and EAQANLLTAKHGMTLRE [RPO21] are within error of each other in protein stability index: 2.87 ± 0.15 for the first, 2.98 ± 0.18 for the second.

First: EASSLGYLDDSEILIIS [IRR1]
Second: EASTVPWGDYLQLETPA [BRR2]
The protein stability index of the first is higher: 2.1 ± 0.048 for the first, 1.42 ± 0.066 for the second.

Compared with EAVELPLVQADLYEQIG [RPT3], ECYKQLFLTAPDSCNMQ [YCS4] is lower in protein stability index: 3.17 ± 0.15 for the first, 2.42 ± 0.11 for the second.

Compared with EDAKLKTDLELLVERLK [RPN1], EDAKYVINLKQIAKFVV [RPT1] is higher in protein stability index: 1.24 ± 0.074 for the first, 1.61 ± 0.12 for the second.

Going from EDDEFEDFPIDTWANGE [SEM1] to EDFLDKSYYLNTVMLQG [AAR2], the protein stability index falls from 3.32 ± 0.098 to 2.02 ± 0.067.

Compared with EDFLHFIVAEYIQQKKV [SRB4], EDFQKRQQKLLEDQQRQ [SWI1] is higher in protein stability index: 2.57 ± 0.1 for the first, 3.21 ± 0.11 for the second.

EDLLECLDRCKEQYNRY [MTR3] and EDMIDQVSKKLSSIEAS [SMC3] are within error of each other in protein stability index: 3.18 ± 0.11 for the first, 3.07 ± 0.16 for the second.

Compared with EDVVAISSRTFGQRAVL [RPS0A], EEAPAPTPAASAPAPAA [FAS2] is lower in protein stability index: 3.3 ± 0.11 for the first, 2.8 ± 0.095 for the second.

EEDYNEFNSIDRVIFRV [PRP8] and EEEYDETHETNISNAKL [YAR002W/NUP60] are within error of each other in protein stability index: 3.27 ± 0.1 for the first, 3.35 ± 0.073 for the second.

EEIPINSSEQESDYEPN [SIR3] and EEISRLQRDLIQTKEQV [YIL149C/MLP2] are within error of each other in protein stability index: 2.82 ± 0.068 for the first, 2.77 ± 0.095 for the second.

Going from EEIVSNSSRFSDPMLQR [YCS4] to EEKQKSYKFPRGTTAVL [PUP1], the protein stability index rises from 3.07 ± 0.096 to 3.37 ± 0.12.

Compared with EELFTQLFHSMSIVFGD [UBP6], EELINAAKGSSTSYAIK [RPS5] is lower in protein stability index: 3.17 ± 0.087 for the first, 2.66 ± 0.077 for the second.

First: EELRGQQTEHETEIKDL [SMC4]
Second: EENFEATRTLVASIQND [YCG1]
The protein stability index of the first is higher: 3.34 ± 0.13 for the first, 3.03 ± 0.16 for the second.

EEPSRVDPEQEAHNKAL [RPT4] gave a protein stability index of 3.4 ± 0.16.
